Laboratory results reported in article PMC9621694.

Target: purified trimeric native F protein of respiratory syncytial virus (respiratory syncytial virus) (UniProt P03420)
Test: SPR; normalized maximum SPR signal of purified scaffolds, point mutants and RSV-F at various concentrations of hRSV90 antibody, sigmoid fits

purified trimeric native F protein of respiratory syncytial virus (respiratory syncytial virus), sequence (P03420 138-513): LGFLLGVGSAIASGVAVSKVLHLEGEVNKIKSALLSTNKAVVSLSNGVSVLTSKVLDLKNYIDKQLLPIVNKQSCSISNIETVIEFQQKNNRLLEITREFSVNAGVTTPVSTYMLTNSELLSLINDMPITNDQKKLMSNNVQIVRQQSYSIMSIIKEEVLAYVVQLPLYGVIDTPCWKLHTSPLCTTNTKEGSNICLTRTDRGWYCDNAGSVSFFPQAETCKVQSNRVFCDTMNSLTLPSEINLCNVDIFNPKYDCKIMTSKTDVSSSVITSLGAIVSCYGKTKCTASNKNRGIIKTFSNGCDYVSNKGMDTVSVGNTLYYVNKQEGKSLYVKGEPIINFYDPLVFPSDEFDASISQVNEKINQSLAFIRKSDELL

Work on neutralizing antibody hRSV90 yielded a Kd of 23 nM.
